Biological target: microtubule (in vitro reconstituted, taxol-stabilised)
Test: cell-based or functional assay

Which results are given for “kinesin (positive control motor protein in the gliding assay)”?
% of gliding microtubules (n = 50), ATP: 89.2%; Maximum gliding speed, ATP: 0.27 µm/min; Mean gliding speed, ATP: 0.17 µm/min
